Target: tropomyosin of native porcine cardiac thin filaments (porcine (endogenous in pig heart)) (UniProt P42639)
Test: cryo-EM structure

## C0C1 fragment of human cardiac myosin binding protein-C (C0-PA-C1) (domain or fragment)
  frequency of segments with C1 in the C1-S position (C1 tethers actin and Tm): 36%

From PMC6281772
